Biological target: T1, His-NRF1 (Nuclear Respiratory Factor 1), bacterially expressed (UniProt Q16656 1-503)
T1 construct: Nuclear Respiratory Factor 1 (NRF1), cDNA cloned into pET28a; Vector pET28a; source: Escherichia coli BL21, expressed and purified
T1 sequence (looked up): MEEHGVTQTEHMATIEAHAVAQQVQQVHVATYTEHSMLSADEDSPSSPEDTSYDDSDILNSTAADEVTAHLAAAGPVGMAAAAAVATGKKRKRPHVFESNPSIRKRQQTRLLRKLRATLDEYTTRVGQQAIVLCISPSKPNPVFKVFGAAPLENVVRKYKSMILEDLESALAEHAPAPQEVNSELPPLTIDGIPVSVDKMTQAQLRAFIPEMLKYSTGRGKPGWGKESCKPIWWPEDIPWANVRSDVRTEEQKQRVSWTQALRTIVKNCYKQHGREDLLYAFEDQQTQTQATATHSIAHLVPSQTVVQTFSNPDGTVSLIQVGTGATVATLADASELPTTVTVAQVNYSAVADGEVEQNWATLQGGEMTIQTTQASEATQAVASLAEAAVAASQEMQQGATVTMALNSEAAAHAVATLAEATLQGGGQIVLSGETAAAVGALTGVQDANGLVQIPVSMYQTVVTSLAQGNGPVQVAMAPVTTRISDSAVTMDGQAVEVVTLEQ
Experiment: pull-down; GST pull-down in vitro with bacterially expressed His-NRF1 and GST-SIAH2
Conditions: both partners purified

binding result: binds
B1: GST-SIAH2, bacterially expressed (enzyme, UniProt O43255 1-324, looked up)
chain: MSRPSSTGPSANKPCSKQPPPQPQHTPSPAAPPAAATISAAGPGSSAVPAAAAVISGPGGGGGAGPVSPQHHELTSLFECPVCFDYVLPPILQCQAGHLVCNQCRQKLSCCPTCRGALTPSIRNLAMEKVASAVLFPCKYATTGCSLTLHHTEKPEHEDICEYRPYSCPCPGASCKWQGSLEAVMSHLMHAHKSITTLQGEDIVFLATDINLPGAVDWVMMQSCFGHHFMLVLEKQEKYEGHQQFFAIVLLIGTRKQAENFAYRLELNGNRRRLTWEATPRSIHDGVAAAIMNSDCLVFDTAIAHLFADNGNLGINVTISTCCP
notes: E3 ligase SIAH2, cDNA cloned into pGEX-4T-1; Vector pGEX-4T-1; source: Escherichia coli BL21, expressed and purified

Reference: article PMC6399320, “The SIAH2-NRF1 axis spatially regulates tumor microenvironment remodeling for tumor progression” (Nature Communications, 2019)
